Data reported in patent US20200264182A1, “METHOD FOR DETECTING PROSTATE CANCER” (J-OIL MILLS, INC., priority 2017, published 2020).

Assay: FAC binding constant
Conditions: at 25° C.
Description: Details of the FAC method are described in Patent Document 2 filed by some of the present applicants, for example.
Binding constants (at 25° C.) of PhoSL, SRL, NSL and LSL belonging to the fucose α1→6 specific lectin for various sugar chains are shown in Tables 2 to 5.

[1] = sugar chain having fucose other than α1→6 fucose

Binding constant for sugar chain No. 728 (Table 3: sugar chain having fucose other than α1→6 fucose): <1000 M⁻¹
Binding constant for sugar chain No. 419 [1]: <1000 M⁻¹
Binding constant for sugar chain No. 420 [1]: <1000 M⁻¹
Binding constant for sugar chain No. 718 [1]: 65000 M⁻¹
Binding constant for sugar chain No. 719 [1]: <1000 M⁻¹
Binding constant for sugar chain No. 720 [1]: <1000 M⁻¹
Binding constant for sugar chain No. 721 [1]: <1000 M⁻¹
Binding constant for sugar chain No. 722 [1]: <1000 M⁻¹
Binding constant for sugar chain No. 723 [1]: 35000 M⁻¹
Binding constant for sugar chain No. 726 [1]: <1000 M⁻¹
Binding constant for sugar chain No. 727 [1]: 130000 M⁻¹
Binding constant for sugar chain No. 729 [1]: <1000 M⁻¹
Binding constant for sugar chain No. 730 [1]: <1000 M⁻¹
Binding constant for sugar chain No. 731 [1]: <1000 M⁻¹
Binding constant for sugar chain No. 739 [1]: <1000 M⁻¹
Binding constant for sugar chain No. 909 [1]: 310000 M⁻¹
Binding constant for sugar chain No. 910 [1]: 90000 M⁻¹
Binding constant for sugar chain No. 931 [1]: <1000 M⁻¹
Binding constant for sugar chain No. 932 [1]: <1000 M⁻¹
Binding constant for sugar chain No. 933 [1]: 210000 M⁻¹
Binding constant for sugar chain No. 001 (sugar chain having no fucose): <1000 M⁻¹
Binding constant for sugar chain No. 002 (sugar chain having no fucose): <1000 M⁻¹
Binding constant for sugar chain No. 003 (sugar chain having no fucose): <1000 M⁻¹
Binding constant for sugar chain No. 004 (sugar chain having no fucose): <1000 M⁻¹
Binding constant for sugar chain No. 005 (sugar chain having no fucose): <1000 M⁻¹
Binding constant for sugar chain No. 006 (sugar chain having no fucose): <1000 M⁻¹
Binding constant for sugar chain No. 007 (sugar chain having no fucose): <1000 M⁻¹
Binding constant for sugar chain No. 008 (sugar chain having no fucose): <1000 M⁻¹
Binding constant for sugar chain No. 009 (sugar chain having no fucose): <1000 M⁻¹
Binding constant for sugar chain No. 010 (sugar chain having no fucose): <1000 M⁻¹
Binding constant for sugar chain No. 011 (sugar chain having no fucose): <1000 M⁻¹
Binding constant for sugar chain No. 012 (sugar chain having no fucose): <1000 M⁻¹
Binding constant for sugar chain No. 013 (sugar chain having no fucose): <1000 M⁻¹
Binding constant for sugar chain No. 014 (sugar chain having no fucose): <1000 M⁻¹
Binding constant for sugar chain No. 101 (sugar chain having no fucose): <1000 M⁻¹
Binding constant for sugar chain No. 103 (sugar chain having no fucose): <1000 M⁻¹
Binding constant for sugar chain No. 104 (sugar chain having no fucose): <1000 M⁻¹
Binding constant for sugar chain No. 105 (sugar chain having no fucose): <1000 M⁻¹
Binding constant for sugar chain No. 107 (sugar chain having no fucose): <1000 M⁻¹
Binding constant for sugar chain No. 108 (sugar chain having no fucose): <1000 M⁻¹
Binding constant for sugar chain No. 301 (sugar chain having no fucose): <1000 M⁻¹
Binding constant for sugar chain No. 304 (sugar chain having no fucose): <1000 M⁻¹
Binding constant for sugar chain No. 305 (sugar chain having no fucose): <1000 M⁻¹
Binding constant for sugar chain No. 307 (sugar chain having no fucose): <1000 M⁻¹
Binding constant for sugar chain No. 308 (sugar chain having no fucose): <1000 M⁻¹
Binding constant for sugar chain No. 313 (sugar chain having no fucose): <1000 M⁻¹
Binding constant for sugar chain No. 314 (sugar chain having no fucose): <1000 M⁻¹
Binding constant for sugar chain No. 323 (sugar chain having no fucose): <1000 M⁻¹
Binding constant for sugar chain No. 501 (sugar chain having no fucose): <1000 M⁻¹
Binding constant for sugar chain No. 502 (sugar chain having no fucose): <1000 M⁻¹
Binding constant for sugar chain No. 503 (sugar chain having no fucose): <1000 M⁻¹
Binding constant for sugar chain No. 504 (sugar chain having no fucose): <1000 M⁻¹
Binding constant for sugar chain No. 701 (sugar chain having no fucose): <1000 M⁻¹
Binding constant for sugar chain No. 702 (sugar chain having no fucose): <1000 M⁻¹
Binding constant for sugar chain No. 703 (sugar chain having no fucose): <1000 M⁻¹
Binding constant for sugar chain No. 704 (sugar chain having no fucose): <1000 M⁻¹
Binding constant for sugar chain No. 705 (sugar chain having no fucose): <1000 M⁻¹
Binding constant for sugar chain No. 706 (sugar chain having no fucose): <1000 M⁻¹
Binding constant for sugar chain No. 707 (sugar chain having no fucose): <1000 M⁻¹
Binding constant for sugar chain No. 708 (sugar chain having no fucose): <1000 M⁻¹
Binding constant for sugar chain No. 709 (sugar chain having no fucose): <1000 M⁻¹
Binding constant for sugar chain No. 710 (sugar chain having no fucose): <1000 M⁻¹
Binding constant for sugar chain No. 711 (sugar chain having no fucose): <1000 M⁻¹
Binding constant for sugar chain No. 712 (sugar chain having no fucose): <1000 M⁻¹
Binding constant for sugar chain No. 713 (sugar chain having no fucose): <1000 M⁻¹
Binding constant for sugar chain No. 715 (sugar chain having no fucose): <1000 M⁻¹
Binding constant for sugar chain No. 716 (sugar chain having no fucose): <1000 M⁻¹
Binding constant for sugar chain No. 717 (sugar chain having no fucose): <1000 M⁻¹
Binding constant for sugar chain No. 724 (sugar chain having no fucose): <1000 M⁻¹
Binding constant for sugar chain No. 725 (sugar chain having no fucose): <1000 M⁻¹
Binding constant for sugar chain No. 732 (sugar chain having no fucose): <1000 M⁻¹
Binding constant for sugar chain No. 733 (sugar chain having no fucose): <1000 M⁻¹
Binding constant for sugar chain No. 734 (sugar chain having no fucose): <1000 M⁻¹
Binding constant for sugar chain No. 735 (sugar chain having no fucose): <1000 M⁻¹
Binding constant for sugar chain No. 736 (sugar chain having no fucose): <1000 M⁻¹
Binding constant for sugar chain No. 737 (sugar chain having no fucose): <1000 M⁻¹
Binding constant for sugar chain No. 738 (sugar chain having no fucose): <1000 M⁻¹
Binding constant for sugar chain No. 901 (sugar chain having no fucose): <1000 M⁻¹
Binding constant for sugar chain No. 902 (sugar chain having no fucose): <1000 M⁻¹
Binding constant for sugar chain No. 903 (sugar chain having no fucose): <1000 M⁻¹
Binding constant for sugar chain No. 905 (sugar chain having no fucose): <1000 M⁻¹
Binding constant for sugar chain No. 906 (sugar chain having no fucose): <1000 M⁻¹
Binding constant for sugar chain No. 907 (sugar chain having no fucose): <1000 M⁻¹
Binding constant for sugar chain No. 015 (sugar chain having α1→6 fucose): 91000 M⁻¹
Binding constant for sugar chain No. 201 (sugar chain having α1→6 fucose): 51000 M⁻¹
Binding constant for sugar chain No. 202 (sugar chain having α1→6 fucose): 54000 M⁻¹
Binding constant for sugar chain No. 203 (sugar chain having α1→6 fucose): 66000 M⁻¹
Binding constant for sugar chain No. 401 (sugar chain having α1→6 fucose): 55000 M⁻¹
Binding constant for sugar chain No. 402 (sugar chain having α1→6 fucose): 11000 M⁻¹
Binding constant for sugar chain No. 403 (sugar chain having α1→6 fucose): 52000 M⁻¹
Binding constant for sugar chain No. 404 (sugar chain having α1→6 fucose): 65000 M⁻¹
Binding constant for sugar chain No. 405 (sugar chain having α1→6 fucose): 56000 M⁻¹
Binding constant for sugar chain No. 406 (sugar chain having α1→6 fucose): 47000 M⁻¹
Binding constant for sugar chain No. 407 (sugar chain having α1→6 fucose): 45000 M⁻¹
Binding constant for sugar chain No. 410 (sugar chain having α1→6 fucose): 38000 M⁻¹
Binding constant for sugar chain No. 413 (sugar chain having α1→6 fucose): 32000 M⁻¹
Binding constant for sugar chain No. 418 (sugar chain having α1→6 fucose): <1000 M⁻¹
Binding constant for sugar chain No. 601 (sugar chain having α1→6 fucose): 61000 M⁻¹
Binding constant for sugar chain No. 602 (sugar chain having α1→6 fucose): 52000 M⁻¹
B1: AAL: Aleuria aurantia lectin, has affinity for fucose α1→6 but is not specific; from J-OIL MILLS, Inc. (protein)
chain: PTEFLYTSKIAAISWAATGGRQQRVYFQDLNGKIREAQRGGDNPWTGGSSQNVIGEAKLFSPLAAVTWKSAQGIQIRVYCVNKDNILSEFVYDGSKWITGQLGSVGVKVGSNSKLAALQWGGSESAPPNIRVYYQKSNGSGSSIHEYVWSGKWTAGASFGSTVPGTGIGATAIGPGRLRIYYQATDNKIREHCWDSNSWYVGGFSASASAGVSIAAISWGSTPNIRVYWQKGREELYEAAYGGSWNTPGQIKDASRPTPSLPDTFIAANSSGNIDISVFFQASGVSLQQWQWISGKGWSIGAVVPTGTPAGW
